Data on 26 molecules can be found in US20190015483A1 (CSL BEHRING RECOMBINANT FACILITY, published 2019).

Experiment [1] deals with T1, recombinant Factor VIII (CSL627, rVIII-SingleChain) (Homo sapiens (Human), UniProt P00451 20-2351).
T1 construct: also called FVIII
T1 sequence: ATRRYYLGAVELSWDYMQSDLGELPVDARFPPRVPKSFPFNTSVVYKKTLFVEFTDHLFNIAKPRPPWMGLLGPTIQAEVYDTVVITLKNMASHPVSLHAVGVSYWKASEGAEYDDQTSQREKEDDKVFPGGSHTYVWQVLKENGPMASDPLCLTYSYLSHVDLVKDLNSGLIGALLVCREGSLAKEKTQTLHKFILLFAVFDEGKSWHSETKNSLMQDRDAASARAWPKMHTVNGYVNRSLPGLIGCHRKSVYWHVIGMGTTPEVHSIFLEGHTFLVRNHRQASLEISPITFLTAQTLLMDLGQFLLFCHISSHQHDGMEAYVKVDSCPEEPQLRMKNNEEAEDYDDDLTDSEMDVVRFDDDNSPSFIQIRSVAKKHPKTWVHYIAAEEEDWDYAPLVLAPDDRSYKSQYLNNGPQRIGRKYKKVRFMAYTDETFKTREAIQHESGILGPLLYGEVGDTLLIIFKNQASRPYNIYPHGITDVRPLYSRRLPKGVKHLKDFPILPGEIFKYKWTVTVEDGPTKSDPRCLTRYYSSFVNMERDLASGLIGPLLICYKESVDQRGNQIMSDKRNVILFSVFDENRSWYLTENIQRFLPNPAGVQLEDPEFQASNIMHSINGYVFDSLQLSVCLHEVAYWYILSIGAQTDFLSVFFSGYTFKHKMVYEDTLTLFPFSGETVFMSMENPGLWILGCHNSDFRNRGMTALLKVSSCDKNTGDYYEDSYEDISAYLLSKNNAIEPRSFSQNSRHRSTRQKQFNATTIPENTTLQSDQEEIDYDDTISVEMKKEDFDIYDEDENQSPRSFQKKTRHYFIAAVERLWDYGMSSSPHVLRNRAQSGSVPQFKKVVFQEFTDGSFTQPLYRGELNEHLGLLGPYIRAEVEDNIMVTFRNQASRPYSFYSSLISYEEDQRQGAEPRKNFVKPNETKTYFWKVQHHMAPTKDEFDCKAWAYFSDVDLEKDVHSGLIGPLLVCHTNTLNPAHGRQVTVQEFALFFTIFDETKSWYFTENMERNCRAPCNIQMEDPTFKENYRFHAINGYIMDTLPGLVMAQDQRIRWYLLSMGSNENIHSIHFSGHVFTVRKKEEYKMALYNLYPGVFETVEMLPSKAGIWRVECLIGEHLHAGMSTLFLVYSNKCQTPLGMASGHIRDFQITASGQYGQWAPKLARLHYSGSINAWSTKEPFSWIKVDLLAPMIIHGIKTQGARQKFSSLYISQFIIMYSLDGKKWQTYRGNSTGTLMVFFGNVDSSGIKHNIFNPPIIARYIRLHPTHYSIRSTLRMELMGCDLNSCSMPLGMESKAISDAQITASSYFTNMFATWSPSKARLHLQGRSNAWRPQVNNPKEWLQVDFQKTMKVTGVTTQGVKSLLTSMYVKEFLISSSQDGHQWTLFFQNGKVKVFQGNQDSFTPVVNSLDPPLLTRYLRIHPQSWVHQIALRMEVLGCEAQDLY
The experiment is described as follows: SPR, anti-His capture. How it is done: Binding kinetics were investigated by surface plasmon resonance using a Biacore 4000 biosensor at 37° C. Each mutant was captured from cell culture medium to a density of 40-150 RU on a CM-5 sensor chip pre-immobilised with anti-His antibody (14,000 RU). In an initial screening study, FVIII was injected over the captured mutants for 5 minutes at 1 nM and dissociation monitored for 5 minutes.
All sensorgrams were double referenced by subtraction of signals from a reference spot (containing only immobilised anti His antibody) and from a blank injection. Binding kinetics were determined by fitting the double referenced sensorgrams to a 1:1 kinetic model.

Experiment [2] deals with T2, recombinant Factor VIII (CSL627, rVIII-SingleChain) (Homo sapiens (Human), UniProt P00451 20-2351).
T2 construct: also called FVIII
T2 sequence: T1 sequence
The experiment is described as follows: SPR, anti-His capture, FVIII injected, 37 C. The gist of the method: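 His-tagged mutants were captured directly from culture medium onto an anti-His surface (14,000 RU) at 40-150 RU. FVIII at 1 nM was injected for 5 min, followed by 5 min dissociation. Double-referenced sensorgrams were fitted to a 1:1 kinetic model.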

As a reminder, the Kd is the free concentration of one partner at which half of the binding sites on the other are occupied at equilibrium, for simple one-to-one binding. The term koff denotes the rate constant with which the complex falls apart. By kon is commonly meant the second-order rate constant of association.

Where a chain is given by its changes, count along the chain named. Numbers in names are those of the source.

B1: Hu-vWF[764-1270]-8His S764P-K773A (other)
chain: PLSCRPPMVALVCPADNLRAEGLECTKTCQNYDLECMSMGCVSGCLCPPGMVRHENRCVALERCPCFHQGKEYAPGETVKIGCNTCVCRDRKWNCTDHVCDATCSTIGMAHYLTFDGLKYLFPGECQYVLVQDYCGSNPGTFRILVGNKGCSHPSVKCKKRVTILVEGGEIELFDGEVNVKRPMKDETHFEVVESGRYIILLLGKALSVVWDRHLSISVVLKQTYQEKVCGLCGNFDGIQNNDLTSSNLQVEEDPVDFGNSWKVSSQCADTRKVPLDSSPATCHNNIMKQTMVDSSCRILTSDVFQDCNKLVDPEPYLDVCIYDTCSCESIGDCACFCDTIAAYAHVCAQHGKVVTWRTATLCPQSCEERNLRENGYECEWRYNSCAPACQVTCQHPEPLACPVQCVEGCHAHCPPGKILDELLQTCVDPEDCPVCEVAGRRFASGKKVTLNPSDPEHCQICHCDVVNLTCEACQEPGGLVVPPTDAPVSPTTLYVEDISEPPLHDFHHHHHHHH
For B1, in experiment [1], the Kd is 0.0297 nM, the koff was 0.000189 s⁻¹ and the kon was 6.37e+06 M⁻¹ s⁻¹.

B2: Hu-vWF[764-1270]-8His S766Y-R768E (other)
chain: B1 chain with P1S, S3Y, R5E, A10K
Regarding B2, in experiment [2], the Kd was found to be 0.569 nM, the off-rate constant (koff) was found to be 0.00322 s⁻¹ and the kon stood at 5.65e+06 M⁻¹ s⁻¹.

B3: Hu-vWF[764-1270]-8His S766Y-R768N (other)
chain: B1 chain with P1S, S3Y, R5N, A10K
B3: in experiment [2], the Kd worked out at 0.191 nM, the koff is 0.000798 s⁻¹ and the kon turned out to be 4.18e+06 M⁻¹ s⁻¹.

B4: Hu-vWF[764-1270]-8His S766Y-R768Y (other)
chain: B1 chain with P1S, S3Y, R5Y, A10K
On to B4, for which, in experiment [2], the Kd stood at 0.277 nM, the off-rate (koff) came out at 0.00187 s⁻¹ and the kon amounted to 6.74e+06 M⁻¹ s⁻¹.

B5: Hu-vWF[764-1270]-8His S766Y-R768T (other)
chain: B1 chain with P1S, S3Y, R5T, A10K
For the molecule B5, in experiment [2], the dissociation constant Kd was found to be 0.256 nM, the koff was 0.00143 s⁻¹ and the on-rate (kon) is 5.59e+06 M⁻¹ s⁻¹.

B6: Hu-vWF[764-1270]-8His S764P-K773H (other)
chain: B1 chain with A10H
B6: in experiment [1], the dissociation constant Kd came out at 0.0386 nM, the koff stood at 0.000636 s⁻¹ and the on-rate (kon) turned out to be 1.65e+07 M⁻¹ s⁻¹.

B7: Hu-vWF[764-1270]-8His S766Y-R768K (other)
chain: B1 chain with P1S, S3Y, R5K, A10K
Turning to B7, in experiment [2], the Kd is 0.109 nM, the koff was found to be 0.000417 s⁻¹ and the kon came out at 3.83e+06 M⁻¹ s⁻¹.

B8: Hu-vWF[764-1270]-8His S766Y-R768H (other)
chain: B1 chain with P1S, S3Y, R5H, A10K
With B8, in experiment [2], the dissociation constant (Kd) came to 0.172 nM, the off-rate (koff) worked out at 0.00069 s⁻¹ and the association rate constant (kon) was found to be 4.02e+06 M⁻¹ s⁻¹.

B9: Hu-vWF[764-1270]-8His S766Y-R768D (other)
chain: B1 chain with P1S, S3Y, R5D, A10K
Consider B9, for which, in experiment [2], the Kd came to 0.908 nM, the koff worked out at 0.00448 s⁻¹ and the kon was 4.94e+06 M⁻¹ s⁻¹.

B10: Hu-vWF[764-1270]-8His S764P-K773E (other)
chain: B1 chain with A10E
In the case of B10, in experiment [1], the Kd came to 0.0765 nM, the koff worked out at 0.00515 s⁻¹ and the association rate constant (kon) stood at 6.73e+07 M⁻¹ s⁻¹.

B11: Hu-vWF[764-1270]-8His S766Y-R768S (other)
chain: B1 chain with P1S, S3Y, R5S, A10K
Turning to B11, in experiment [2], the Kd came out at 0.243 nM, the koff was 0.00129 s⁻¹ and the on-rate constant (kon) turned out to be 5.33e+06 M⁻¹ s⁻¹.

B12: Hu-vWF[764-1270]-8His S766Y-P769W (other)
chain: B1 chain with P1S, S3Y, P6W, A10K
Consider B12, for which, in experiment [2], the Kd is 0.0882 nM, the off-rate constant (koff) came to 0.000421 s⁻¹ and the on-rate constant (kon) was found to be 4.77e+06 M⁻¹ s⁻¹.

B13: Hu-vWF[764-1270]-8His S766Y-R768I (other)
chain: B1 chain with P1S, S3Y, R5I, A10K
Turning to B13, in experiment [2], the dissociation constant Kd came out at 0.179 nM, the koff worked out at 0.000899 s⁻¹ and the association rate constant (kon) was 5.03e+06 M⁻¹ s⁻¹.

B14: Hu-vWF[764-1270]-8His S766Y-R768M (other)
chain: B1 chain with P1S, S3Y, R5M, A10K
Consider B14, for which, in experiment [2], the dissociation constant (Kd) turned out to be 0.196 nM, the off-rate constant (koff) was determined as 0.000801 s⁻¹ and the kon was 4.08e+06 M⁻¹ s⁻¹.

B15: Hu-vWF[764-1270]-8His S766Y-R768V (other)
chain: B1 chain with P1S, S3Y, R5V, A10K
With B15, in experiment [2], the Kd was 0.203 nM, the koff is 0.000918 s⁻¹ and the kon stood at 4.51e+06 M⁻¹ s⁻¹.

B16: Hu-vWF[764-1270]-8His S764P-K773F (other)
chain: B1 chain with A10F
For B16, in experiment [1], the equilibrium dissociation constant (Kd) is 0.121 nM, the off-rate constant (koff) worked out at 0.00123 s⁻¹ and the kon worked out at 1.02e+07 M⁻¹ s⁻¹.

B17: Hu-vWF[764-1270]-8His S766Y-R768Q (other)
chain: B1 chain with P1S, S3Y, R5Q, A10K
In the case of B17, in experiment [2], the Kd was found to be 0.174 nM, the off-rate constant (koff) was 0.000606 s⁻¹ and the kon amounted to 3.48e+06 M⁻¹ s⁻¹.

B18: Hu-vWF[764-1270]-8His S766Y-P769Y (other)
chain: B1 chain with P1S, S3Y, P6Y, A10K
In the case of B18, in experiment [2], the Kd was determined as 0.0847 nM, the off-rate constant (koff) was 0.000396 s⁻¹ and the kon was 4.68e+06 M⁻¹ s⁻¹.

B19: Hu-vWF[764-1270]-8His S766Y-R768A (other)
chain: B1 chain with P1S, S3Y, R5A, A10K
On to B19, for which, in experiment [2], the Kd was found to be 0.212 nM, the off-rate (koff) is 0.00148 s⁻¹ and the association rate constant (kon) stood at 6.99e+06 M⁻¹ s⁻¹.

B20: Hu-vWF[764-1270]-8His S766Y-R768F (other)
chain: B1 chain with P1S, S3Y, R5F, A10K
B20: in experiment [2], the Kd turned out to be 0.279 nM, the koff stood at 0.00182 s⁻¹ and the kon was 6.51e+06 M⁻¹ s⁻¹.

B21: Hu-vWF[764-1270]-8His S764P-K773G (other)
chain: B1 chain with A10G
As for B21, in experiment [1], the Kd is 0.0436 nM, the koff was 0.000762 s⁻¹ and the on-rate (kon) was 1.75e+07 M⁻¹ s⁻¹.

B22: Hu-vWF[764-1270]-8His S766Y-R768W (other)
chain: B1 chain with P1S, S3Y, R5W, A10K
For B22, in experiment [2], the Kd turned out to be 0.213 nM, the koff stood at 0.00094 s⁻¹ and the kon worked out at 4.42e+06 M⁻¹ s⁻¹.

B23: Hu-vWF[764-1270]-8His S766Y-R768L (other)
chain: B1 chain with P1S, S3Y, R5L, A10K
B23: in experiment [2], the Kd stood at 0.129 nM, the koff was found to be 0.000548 s⁻¹ and the association rate constant (kon) turned out to be 4.24e+06 M⁻¹ s⁻¹.

B24: Hu-vWF[764-1270]-8His S764P-K773D (other)
chain: B1 chain with A10D
For the molecule B24, in experiment [1], the dissociation constant Kd is 0.136 nM, the koff turned out to be 0.0024 s⁻¹ and the kon was 1.77e+07 M⁻¹ s⁻¹.

B25: Hu-vWF[764-1270]-8His S766Y-R768P (other)
chain: B1 chain with P1S, S3Y, R5P, A10K
B25: in experiment [2], the Kd came out at 0.213 nM, the dissociation rate constant (koff) was 0.00143 s⁻¹ and the kon is 6.71e+06 M⁻¹ s⁻¹.

B26: Hu-vWF[764-1270]-8His S766Y-R768G (other)
chain: B1 chain with P1S, S3Y, R5G, A10K
As to B26, in experiment [2], the equilibrium dissociation constant (Kd) came to 0.32 nM, the koff worked out at 0.00102 s⁻¹ and the kon was found to be 3.2e+06 M⁻¹ s⁻¹.
